Measured values from the supplement of paper PMC12764529.
± gives the half width of the 95% confidence interval.

What was measured:
[1] = folding stability dG unfold from chymotrypsin proteolysis; higher = more stable
Method in brief: (§1)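 Digests were run with trypsin and chymotrypsin at 11 concentrations in threefold dilutions, plus a no-protease condition, on designed mini-proteins in a PA-tagged cDNA display construct. The mini-proteins were under 80 residues, had no cysteine, and were kept only when AlphaFold2 dimer inter-PAE was above 15. After sequencing, Bayesian fitting of the counts gave K50, from which unfolding free energy was derived against a sequence-predicted unfolded-state K50 and a shared folded-state K50, per protease or combined.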

[2] = folding stability dG unfold from trypsin proteolysis; higher = more stable
Method in brief: as §1

[3] = folding stability dG unfold (combined trypsin and chymotrypsin); higher = more stable
Method in brief: as §1

For “SAGGKITAFVLVELPDGSVVERTYEFERLDDLLAFLEADPGPKLADLEIIPPEGSDDIIIPLVARVEPSAGG [r13_796_TrMRF]”, the “folding stability dG unfold” value [1] was 2.15 ± 0.053 kcal/mol, the “folding stability dG unfold” value [2] was 0.883 ± 0.041 kcal/mol and the “folding stability dG unfold” value [3] was 1.77 ± 0.1 kcal/mol.

For “SAGGKITIEVTYNKETGEITIRITFNGKTIEIKIKVPGLSEEEVKKLAEELAKKLKEKYGIDKVEITSAGGS [r16_249_TrROS_Hall]”, the “folding stability dG unfold” value [1] was 4.4 ± 0.11 kcal/mol, the “folding stability dG unfold” value [2] was 4.36 ± 0.45 kcal/mol and the “folding stability dG unfold” value [3] was 4.36 ± 0.29 kcal/mol.

With “SAGGKKEKIVEIKLLDMSYDPENKTVTFKFLVKLENGEEKVIELKISAEDFEKMSLEDILKAVKDFFESAGG [r13_512_TrMRF]” the “folding stability dG unfold” value [1] was 4.83 ± 0.09 kcal/mol, the “folding stability dG unfold” value [2] was 3.74 ± 0.16 kcal/mol and the “folding stability dG unfold” value [3] was 4.72 ± 0.15 kcal/mol.

With “SAGGKKEVILVIEIDLPESEEELLEEAERLAKELAELLGKEREVEVEVIEKDGKLIIVLRINGKEIVLSAGG [r13_845_TrROS_Hall]” the “folding stability dG unfold” value [1] was 2.68 ± 0.051 kcal/mol, the “folding stability dG unfold” value [2] was 2.78 ± 0.23 kcal/mol and the “folding stability dG unfold” value [3] was 2.52 ± 0.32 kcal/mol.

For “SAGGKKFKIKEITITYNPDADTVTMTVKLDDGTTVELTFNKETKKLTVKVINKDTGEEKEFEFTLPDSAGGS [r8_363_TrROS_Hall]”, the “folding stability dG unfold” value [1] was 4.9 ± 0.25 kcal/mol, the “folding stability dG unfold” value [2] was 3.1 ± 0.17 kcal/mol and the “folding stability dG unfold” value [3] was 4.77 ± 0.24 kcal/mol.

In the case of “SAGGKKIEIKEENGSLVIKVDGYLVTIEPIDGKLVATVVKKDKKTKKWKIVETKILTLDEILELLKKSAGGS [r8_174_TrROS_Hall]”, the “folding stability dG unfold” value [1] is reported as 3.034 ± 0.026 kcal/mol, the “folding stability dG unfold” value [2] is reported as 1.91 ± 0.057 kcal/mol and the “folding stability dG unfold” value [3] is reported as 2.66 ± 0.099 kcal/mol.

With “SAGGKKIKVEVKIEIKIEKNPDGSYTIRIKITVKVTNENGEKFEVKVELEITLSEEELEKLKKLLEELSAGG [r13_412_TrROS_Hall]” the “folding stability dG unfold” value [1] was 3.75 ± 0.46 kcal/mol, the “folding stability dG unfold” value [2] was 3.07 ± 0.24 kcal/mol and the “folding stability dG unfold” value [3] was 3.5 ± 0.39 kcal/mol.

For “SAGGKKIVIFIGPPEQMDRMQEQHPDEPVIPIPRDALQDPEPAKNLIKELQEKGKDVEIYLFKDFKPSAGGS [r8_376_TrROS]”, the “folding stability dG unfold” value [1] was -0.287 ± 0.4 kcal/mol, the “folding stability dG unfold” value [2] was -0.176 ± 0.31 kcal/mol and the “folding stability dG unfold” value [3] was -0.239 ± 0.17 kcal/mol.

With “SAGGKKIVLFVGPPELVEELKKAYPDLPFVPIPVEVLENPEPAAEIIKELKEKGYEVVVYNFPDLKESAGGS [r8_376_TrMRF]” the “folding stability dG unfold” value [1] was 2.562 ± 0.021 kcal/mol, the “folding stability dG unfold” value [2] was 1.37 ± 0.057 kcal/mol and the “folding stability dG unfold” value [3] was 2.21 ± 0.071 kcal/mol.

With “SAGGKKKKIEIEIVVKKEDLEKIAEELAKKLEEAGYKVKIKKIEVEVYKNKDGKIVYVKVRIEVEVEPSAGG [r13_707_TrROS_Hall]” the “folding stability dG unfold” value [1] was 4.82 ± 0.18 kcal/mol, the “folding stability dG unfold” value [2] was 3.05 ± 0.47 kcal/mol and the “folding stability dG unfold” value [3] was 4.65 ± 0.53 kcal/mol.

In the case of “SAGGKKKKIKPKEIKVRIIIEKDGKKIEIELSEEELEKIKKAPTLEEIIKELEKKGFKIVKIEIEKKSAGGS [r16_567_TrROS_Hall]”, the “folding stability dG unfold” value [1] is reported as 3.05 ± 0.059 kcal/mol, the “folding stability dG unfold” value [2] is reported as 1.19 ± 0.073 kcal/mol and the “folding stability dG unfold” value [3] is reported as 2.43 ± 0.21 kcal/mol.

In the case of “SAGGKKKKKKKKKKKKKVKVRVRIVVENKNGEKKEIEIELKGLTLEELKKLAKELEKKGFKVKKIEIESAGG [r13_227_TrROS_Hall]”, the “folding stability dG unfold” value [1] is reported as 3.53 ± 0.16 kcal/mol, the “folding stability dG unfold” value [2] is reported as 3.28 ± 0.3 kcal/mol and the “folding stability dG unfold” value [3] is reported as 3.34 ± 0.39 kcal/mol.

With “SAGGKKKKVIIVIEAPPGMSAEEIAAAIAEKLGLPKEEIKVERFKSVEEALAAAEKEGKEVIVIEVDSAGGS [r8_245_TrROS_Hall]” the “folding stability dG unfold” value [1] was 2.56 ± 0.059 kcal/mol, the “folding stability dG unfold” value [2] was 2.06 ± 0.053 kcal/mol and the “folding stability dG unfold” value [3] was 2.41 ± 0.096 kcal/mol.

With “SAGGKKKKVKKKKPVYRIKIKLKNGEEIEIEAKSKEEAEKAAKELLKKLFPEKKIDEIKIVEIEKLPPSAGG [r13_887_TrROS_Hall]” the “folding stability dG unfold” value [1] was 2.69 ± 0.12 kcal/mol, the “folding stability dG unfold” value [2] was 2.54 ± 0.061 kcal/mol and the “folding stability dG unfold” value [3] was 2.69 ± 0.16 kcal/mol.
